Assay results as given in paper doi:10.1101/2022.11.07.515429 (bioRxiv, 2022).

Target: T1, Strep-PRP5 (human, UniProt Q7L014 1-1031)
T1 sequence: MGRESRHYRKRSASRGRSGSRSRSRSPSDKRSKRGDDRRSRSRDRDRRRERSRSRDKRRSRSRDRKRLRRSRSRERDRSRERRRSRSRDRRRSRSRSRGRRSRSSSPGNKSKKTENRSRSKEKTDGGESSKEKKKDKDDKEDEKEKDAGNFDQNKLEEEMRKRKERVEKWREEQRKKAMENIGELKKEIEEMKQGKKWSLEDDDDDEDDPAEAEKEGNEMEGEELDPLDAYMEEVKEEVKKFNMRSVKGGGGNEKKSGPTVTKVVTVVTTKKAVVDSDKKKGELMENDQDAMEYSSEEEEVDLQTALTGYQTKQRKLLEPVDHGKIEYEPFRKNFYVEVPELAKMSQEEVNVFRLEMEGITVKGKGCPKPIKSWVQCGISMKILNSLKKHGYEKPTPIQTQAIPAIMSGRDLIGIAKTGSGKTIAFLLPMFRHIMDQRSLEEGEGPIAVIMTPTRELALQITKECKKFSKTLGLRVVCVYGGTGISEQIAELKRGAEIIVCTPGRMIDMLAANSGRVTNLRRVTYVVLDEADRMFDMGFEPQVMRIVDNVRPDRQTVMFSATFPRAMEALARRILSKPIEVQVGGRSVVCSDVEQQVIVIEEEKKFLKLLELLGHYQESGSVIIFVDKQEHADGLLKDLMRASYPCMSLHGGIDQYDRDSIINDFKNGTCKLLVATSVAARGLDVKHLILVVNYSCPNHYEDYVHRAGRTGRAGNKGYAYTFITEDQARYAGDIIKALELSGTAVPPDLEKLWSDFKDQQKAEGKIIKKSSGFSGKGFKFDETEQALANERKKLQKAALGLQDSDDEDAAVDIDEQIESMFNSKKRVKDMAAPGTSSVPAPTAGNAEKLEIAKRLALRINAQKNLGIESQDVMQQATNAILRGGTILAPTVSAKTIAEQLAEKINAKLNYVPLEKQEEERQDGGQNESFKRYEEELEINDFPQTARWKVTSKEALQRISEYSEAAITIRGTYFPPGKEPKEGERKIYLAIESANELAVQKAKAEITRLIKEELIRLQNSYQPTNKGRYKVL
Experiment: pull-down

B1: Flag-tagged SF3B1 K700E (natural protein, human, UniProt O75533 1-1304, looked up)
chain: MAKIAKTHEDIEAQIREIQGKKAALDEAQGVGLDSTGYYDQEIYGGSDSRFAGYVTSIAATELEDDDDDYSSSTSLLGQKKPGYHAPVALLNDIPQSTEQYDPFAEHRPPKIADREDEYKKHRRTMIISPERLDPFADGGKTPDPKMNARTYMDVMREQHLTKEEREIRQQLAEKAKAGELKVVNGAAASQPPSKRKRRWDQTADQTPGATPKKLSSWDQAETPGHTPSLRWDETPGRAKGSETPGATPGSKIWDPTPSHTPAGAATPGRGDTPGHATPGHGGATSSARKNRWDETPKTERDTPGHGSGWAETPRTDRGGDSIGETPTPGASKRKSRWDETPASQMGGSTPVLTPGKTPIGTPAMNMATPTPGHIMSMTPEQLQAWRWEREIDERNRPLSDEELDAMFPEGYKVLPPPAGYVPIRTPARKLTATPTPLGGMTGFHMQTEDRTMKSVNDQPSGNLPFLKPDDIQYFDKLLVDVDESTLSPEEQKERKIMKLLLKIKNGTPPMRKAALRQITDKAREFGAGPLFNQILPLLMSPTLEDQERHLLVKVIDRILYKLDDLVRPYVHKILVVIEPLLIDEDYYARVEGREIISNLAKAAGLATMISTMRPDIDNMDEYVRNTTARAFAVVASALGIPSLLPFLKAVCKSKKSWQARHTGIKIVQQIAILMGCAILPHLRSLVEIIEHGLVDEQQEVRTISALAIAALAEAATPYGIESFDSVLKPLWKGIRQHRGKGLAAFLKAIGYLIPLMDAEYANYYTREVMLILIREFQSPDEEMKKIVLKVVKQCCGTDGVEANYIKTEILPPFFKHFWQHRMALDRRNYRQLVDTTVELANKVGAAEIISRIVDDLKDEAEQYRKMVMETIEKIMGNLGAADIDHKLEEQLIDGILYAFQEQTTEDSVMLNGFGTVVNALGKRVKPYLPQICGTVLWRLNNKSAKVRQQAADLISRTAVVMKTCQEEKLMGHLGVVLYEYLGEEYPEVLGSILGALKAIVNVIGMHKMTPPIKDLLPRLTPILKNRHEKVQENCIDLVGRIADRGAEYVSAREWMRICFELLELLKAHKKAIRRATVNTFGYIAKAIGPHDVLATLLNNLKVQERQNRVCTTVAIAIVAETCSPFTVLPALMNEYRVPELNVQNGVLKSLSFLFEYIGEMGKDYIYAVTPLLEDALMDRDLVHRQTASAVVQHMSLGVYGFGCEDSLNHLLNYVWPNVFETSPHVIQAVMGALEGLRVAIGPCRMLQYCLQGLFHPARKVRDVYWKIYNSIYIGSQDALIAHYPRIYNDDKNTYIRYELDYIL
relative binding ratio (pulldown over input, normalised to WT): 64 percent
